The results in this text go back to the supplement of paper PMC9170038.

This data set deals with MS2 coat protein. The data set can be described thus: apparent KD of MS2 coat protein; designed switch direction (-1 OFF switch, 1 ON switch): -1; higher = weaker reporter binding. The method in brief:
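Designed RNA switches with common flanks were made on Illumina chips by stalled E. coli RNA polymerase. Titration with SNAP-549-labelled MS2 coat protein doubled from 0.7 or 1.5 nM up to 3 µM. Apparent KD is each design's median over clusters after curve-fitting normalised fluorescence.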

[1] abbreviates: Eterna round: R95, input ligand: FMN 200 uM.
[2] abbreviates: Eterna round: R95, input ligand: microRNA oligo, concentration not stated.
The mark [3] stands for this setting: Eterna round: R95, input ligand: none.
The mark [4] stands for this setting: input ligand: microRNA oligo, concentration not stated.

As for “GGUACUCAUGUGAGGAUAUGCUCGAAUGCAGACGAGCAGAAGGUACAUGAGGAUCACCCAUGUACCAUAAAGUA [Eternabot (Original) Solution 1] (Eterna round: R97, puzzle: Brourd's mod of Exclusion 4)”, the “apparent KD of MS2 coat protein” value (input ligand: FMN 200 uM) was 23.6 nM and the “apparent KD of MS2 coat protein” value (input ligand: none) was 13.1 nM.
As to “GGUAGUAUGAGUAGUCCUCAUUGAAGAGAUUAGUAAGAAACAUGAGGAUCACCCAUGUUAGAACAAGCUUUUGCUCA [JR_Sv3TOV2_Sub004] (puzzle: Sensor v3, turn-off variant 2)”, the “apparent KD of MS2 coat protein” value was 113 nM under setting [1], 45.7 nM under setting [2] and 142 nM under setting [3].
Regarding “GGUCAAGAACAGCUCCGCGCUGCCCUUGACCGCUCAUUUACAUGAGGAUCACCCAUGUUUUUUGCUUGUCUUGUUUC [Bebiesgebe] (puzzle: Sensor v3, turn-off variant 2)”, the “apparent KD of MS2 coat protein” value by setting is: under setting [1], 20 nM; under setting [2], 127 nM; under setting [3], 22.6 nM.
In the same order, the values of “GGUCAAGAGCAGAUCCGCGCUGCUAUUGACCGCUCAUUUACAUGAGGAUCACCCAUGUUUUUUGCUCGUCUUAUUAC [Biinedmaa] (puzzle: Sensor v3, turn-off variant 2)” are 19.4 nM, 77.7 nM and 18.7 nM.
As to “GGUCAGACGGUAGGAUAUCCAUAUCGAGUGACCCUUUUAUAACAUGAGGAUCACCCAUGUCGGUGGGAGAAGGGCCGUACGGCG [salish99_ExNG02_R04_003] (Eterna round: R96, puzzle: Exclusion NG 2)”, the “apparent KD of MS2 coat protein” value was 445 nM (input ligand: FMN 200 uM), 304 nM under setting [4] and 401 nM (input ligand: none).
Regarding “GGUCAUAGGUAAGGAUAUGAAGAUCUGGUGGUGACAUGAGGAUCACCCAUGUGAAAACGAUGAGAUCAGAAGGUACAAUAUGAA [AK ExNG2-4.1] (Eterna round: R96, puzzle: Exclusion NG 2)”, the “apparent KD of MS2 coat protein” value by setting is: (input ligand: FMN 200 uM) 72.7 nM; under setting [4], 49.1 nM; (input ligand: none) 86.4 nM.
For the sequence “GGUCCACAUGAGGAUCACCCAUGUAAUAACAUGCAGCGCAGGAAGGAUAUGCCCGAACAAAGCCAGCAGAAGGUCCAUUAACAU [Eternabot solution 7] (Eterna round: R96, puzzle: Exclusion NG 3)”, the “apparent KD of MS2 coat protein” value runs as follows: (input ligand: FMN 200 uM) 166 nM; under setting [4], 84.5 nM; (input ligand: none) 128 nM.
Take “GGUCCACGAGGAUAUCGAUUUUAGUACAUGAGGAUCACCCAUGUUGUCCAGGUUUCGAUUCGAGAAGGCGUGGGCC [LRO-Ex5-03] (puzzle: Exclusion 5)”: under setting [2], the “apparent KD of MS2 coat protein” value is 20.3 nM.
With “GGUCGUUUAGUGAGGAUAUGCAGCGUCAUAGCGCAGCAGAAGGCACAUGAGGAUCACCCAUGUCCUCCCAAAAG [Eternabot (L1) Solution 9] (Eterna round: R97, puzzle: Brourd's mod of Exclusion 4)”, the “apparent KD of MS2 coat protein” value is, setting by setting: (input ligand: FMN 200 uM) 253 nM; (input ligand: none) 18.9 nM.
In the same order, the values of “GGUCUACAUGAGGAUCACCCAUGUAAGGAUAUCGUCACUGGAGCCUCGGCUCCAGUGACGAGAAGGUGCAUAAU [E1/11-A2] (Eterna round: R97, puzzle: Exclusion 1)” are 48.9 nM and 36.6 nM.
Regarding “GGUCUGCGAGGAUAUACAUGAGGAUCACCCAUGUGCGAGUUACUAGUGAGGUCGGUUGGUAGAAGGCGCGGACG [JL-ex3-2.09 salish99 mod] (puzzle: Exclusion 3)”, the “apparent KD of MS2 coat protein” value was 69.3 nM under setting [1], 52.3 nM under setting [2] and 32.9 nM under setting [3].
Turning to “GGUGAAGCAGGAUAUGUGCUGGCAUACAUGAGGAUCACCCAUGUCAUGUAGGAACCACGUAUAGAAGGGCUUCACC [Exclusion 5 (FMN-MS2 slide v.10)] (Eterna round: R97, puzzle: Exclusion 5)”, the “apparent KD of MS2 coat protein” value by setting is: (input ligand: FMN 200 uM) 50.7 nM; (input ligand: none) 28.1 nM.
“GGUGAGCGAGGAUAUACAUGAGGAUCACCCAUGUGAGAGAAUAAAGUGAGGAAGAAAAGUAGAAGGCGCGAACG [Mat - Exclusion 3 - Mod of Salish D47] (puzzle: Exclusion 3)”: the “apparent KD of MS2 coat protein” value under setting [1] was 91.4 nM, the “apparent KD of MS2 coat protein” value under setting [2] came to 37.8 nM and the “apparent KD of MS2 coat protein” value under setting [3] came to 11.9 nM.
With “GGUGAGCUAGGAUAUGCUUUGGGAACGCAUUCCUUCGAUAAACUUGAGGAUCACCCAAGUAGAAGGAGCUUGCC [salish99_ex2_r4_029] (Eterna round: R97, puzzle: Exclusion 2)”, the “apparent KD of MS2 coat protein” value was 158 nM (input ligand: FMN 200 uM) and 34 nM (input ligand: none).
As to “GGUGAGCUAGGAUAUGCUUUGGGCUCGCAUUCCUUCGAUAAACUUGAGGAUCACCCAAGUAGAAGGAGCUUGCC [salish99_ex2_r4_032] (Eterna round: R97, puzzle: Exclusion 2)”, the “apparent KD of MS2 coat protein” value (input ligand: FMN 200 uM) came out at 23.3 nM and the “apparent KD of MS2 coat protein” value (input ligand: none) amounted to 15.8 nM.
As for “GGUGCGUUUGUGAGGAUAUGCUGGUCCUUGGAUCCGCAGAAGGCACAUGAGGAUCACCCAUGUGGUGUCGUACC [salish99_Bmod_Ex4_034] (puzzle: Brourd's mod of Exclusion 4)”, the “apparent KD of MS2 coat protein” value under setting [2] was 199 nM.
“GGUGUACUAGUCAGGAUAUGAUUAAUACCAAAGAAUCAGAAGGGACAUGAGGAUCACCCAUGUAAAGAAGGAGA [BmEX4 A.23] (Eterna round: R97, puzzle: Brourd's mod of Exclusion 4)”: the “apparent KD of MS2 coat protein” value is, setting by setting: (input ligand: FMN 200 uM) 158 nM; (input ligand: none) 32.5 nM.
Regarding “GGUGUGCUAGGAUAUGCUUUGGGCUCGCUUUCCUUCGUUUUACUUGAGGAUCACCCAAGUAGAAGGAGCUUGCC [salish99_ex2_r4_037] (Eterna round: R97, puzzle: Exclusion 2)”, the “apparent KD of MS2 coat protein” value runs as follows: (input ligand: FMN 200 uM) 13.3 nM; (input ligand: none) 11.6 nM.
The like results for “GGUGUGCUAGGAUAUGCUUUGGGCUCGCUUUCCUUCGUUUUACUUGAGGAUCACCCAAGUAGAAGGUGCUUGCC [salish99_ex2_r4_038] (Eterna round: R97, puzzle: Exclusion 2)” were, in that order, 13 nM and 13 nM.
Take “GGUUAUUGCAAGGAUAUGCUUUUUUUUUAUAUUGCAGAAGGUGCAACAUGAGGAUCACCCAUGUUGGAGGGUUU [JR_E6_Sub022] (puzzle: Exclusion 6)”: the “apparent KD of MS2 coat protein” value under setting [2] was determined as 26 nM.
Consider “GGUUCGAGAGUAAGGAUAUCGGUCUGCGCGAGUGACGAGAAGGUACAUGAGGAUCACCCAUGUCGAGGGAUCAC [Eternabot (L2) Solution 23] (Eterna round: R97, puzzle: Brourd's mod of Exclusion 4)”, for which the “apparent KD of MS2 coat protein” value (input ligand: FMN 200 uM) stood at 35.8 nM and the “apparent KD of MS2 coat protein” value (input ligand: none) turned out to be 34.9 nM.
As for “GGUUCGUGAGGAUAUGUGGCUUCGAUCGUGCGAAGAAGGCUACAGAAGGCACAUGAGGAUCACCCAUGUUCGUC [salish99_ex4_r4_228] (Eterna round: R97, puzzle: Exclusion 4)”, the “apparent KD of MS2 coat protein” value reads like this: (input ligand: FMN 200 uM) 241 nM; (input ligand: none) 62.1 nM.
Regarding “GGUUGACAUGAGGAUCACCCAUGUGAGGAUAUGCGAGAGAAAAAAGUGAGGAAGGUUUGCAGAAGGCGCUGUCG [salish99-ex1_r3_008] (puzzle: Exclusion 1)”, the “apparent KD of MS2 coat protein” value is, setting by setting: under setting [1], 50.2 nM; under setting [2], 115 nM; under setting [3], 81.2 nM.
Turning to “GGUUGACAUGAGGAUCACCCAUGUGAGGAUAUGCGAGAGAAAAAAGUGAGGAAGUUAAGCAGAAGGCGCUGUCG [salish99-ex1_r3_005] (puzzle: Exclusion 1)”, the “apparent KD of MS2 coat protein” value was found to be 89.5 nM under setting [1], 78 nM under setting [2] and 307 nM under setting [3].
Consider “GGUUGGCGAGGAUAUACAUGAGGAUCACCCAUGUGAGAGAAAAAAGUGAGCAAGAAAAGUAGAAGGCGCUGACG [salish99_ex3_r3_030] (Eterna round: R96, puzzle: Exclusion 3)”, for which the “apparent KD of MS2 coat protein” value came out at 209 nM (input ligand: FMN 200 uM), 110 nM under setting [4] and 59.9 nM (input ligand: none).
“GGUUGGCGAGGAUAUACAUGAGGAUCACCCAUGUGAGAGAAAAAAGUGAGCAAGAAAAGUAGAAGGCGCUGACG [salish99_ex3_r3_030] (puzzle: Exclusion 3)”: the “apparent KD of MS2 coat protein” value reads like this: under setting [1], 627 nM; under setting [2], 75.7 nM; under setting [3], 27.5 nM.
For “GGUUGGCGAGGAUAUACAUGAGGAUCACCCAUGUGAGAGAAAGAAGUGAGGAAGAAUAGUAGAAGGCGCUGACG [salish99_ex3_r3_056] (puzzle: Exclusion 3)”, the “apparent KD of MS2 coat protein” value worked out at 746 nM under setting [1], 56.1 nM under setting [2] and 69.1 nM under setting [3].
Consider “GGUUGGCGAGGAUAUACAUGAGGAUCACCCAUGUGAGAGAGAAAAGUGAGAACGAAAAGUAGAAGGCGCUGACG [salish99_ex3_r3_061] (puzzle: Exclusion 3)”, for which the “apparent KD of MS2 coat protein” value is, setting by setting: under setting [1], 53.5 nM; under setting [2], 65.6 nM; under setting [3], 96.2 nM.
As for “GGUUGGCGAGGAUAUACAUGAGGAUCACCCAUGUGAGAUAAAAAAGUGAGGAAGAAAAGUAGAAGGCGCUGACG [salish99_ex3_r3_010] (puzzle: Exclusion 3)”, the “apparent KD of MS2 coat protein” value reads like this: under setting [1], 1140 nM; under setting [2], 71.5 nM; under setting [3], 85.1 nM.
The like results for “GGUUGGCGAGGAUAUACAUGAGGAUCACCCAUGUGAGCGAAAAAAGUGAGGAAGAAAAGUAGAAGGCGCUGACG [salish99_ex3_r3_020] (puzzle: Exclusion 3)” were, in that order, 236 nM, 40.1 nM and 63.5 nM.
